According to US7514069B2, “Tumor-targeted optical contrast agents” (Mallinckrodt Inc., priority 2000, dated 2009):

Legend:
[1] = system: pancreatic acinar carcinoma (CA20948); test: Imaging of individual organs removed from CA20948 tumor-bearing rat; type: in vivo; details: organs removed about 24 hours post administration
Experimental: Individual organs were removed at about 24 hours post Cytate 1 administration and imaged.

[2] = system: pancreatic acinar carcinoma expressing the SST-2 receptor (CA20948); test: In vivo fluorescence imaging of rat pancreatic acinar carcinoma (CA20948); parameters: species or system Lewis rat
Source text: (§1) A non-invasive in vivo fluorescence imaging apparatus was employed to assess the efficacy of contrast agents developed for tumor detection in animal models. A LaserMax Inc. laser diode of nominal wavelength 780 nm and nominal power of 40 mW was used. The detector was a Princeton Instruments model RTE/CCD-1317-K/2 CCD camera with a Rodenstock 10 mm F2 lens (stock #542.032.002.20) attached. An 830 nm interference […] (CVI Laser Corp., part # F10-830-4-2) was mounted in front of the CCD input lens such that only emitted fluorescent light from the contrast agent was imaged. Typically, an image of the animal was taken pre-injection of contrast agent. This image was subsequently subtracted (pixel by pixel) from the post injection images. However, the background subtraction was […] done once the animal had been removed from the sample area and returned at a later time for images taken several hours post injection.
The imaging apparatus and the procedure used are described in Example 12. Rat pancreatic acinar carcinoma expressing the SST-2 receptor (CA20948) was induced by solid implant technique in the left flank area, and palpable masses were detected nine days post implant. The images obtained at 2 and 30 minutes post injection are shown in FIG. 7E-F. FIGS. 7E-F are images of a rat with an induced pancreatic acinar carcinoma (CA20948) expressing the SST-2 receptor imaged at two minutes (FIG. 7E) and 30 minutes (FIG. 7F) post injection.
The imaging apparatus and the procedure used are described in Example 12 except that each animal received 500 μl of a 1.0 mg/mL solution of Cytate 1 solution of 25% dimethylsulfoxide in water.
Rat pancreatic acinar carcinoma expressing the SST-2 receptor (CA20948) were induced by solid implant technique in the left flank area, and palpable masses were detected 24 days post implant. Images were obtained at various times post injection.
Cytate 1 was evaluated in the CA20948 Lewis rat model. […] At 27 hours post injection, the animal was again imaged (FIG. 9B).

[3] = Monitoring of the blood clearance profile of peptide-dye conjugates; type: in vivo, Sprague-Dawley or Fischer 344 rats; details: bolus injection in lateral tail vein; monitored at 830 nm after excitation at 780 nm
Source text: A laser of appropriate wavelength for excitation of the dye chromophore was directed into one end of a fiber optic bundle and the other end was positioned a few millimeters from the ear of a rat. A second fiber optic bundle was also positioned near the same ear to detect the emitted fluorescent light and the other end was directed into the optics and electronics for data collection. An interference filter (IF) in the collection optics train was used to select emitted fluorescent light of the appropriate wavelength for the dye chromophore.
Sprague-Dawley or Fischer 344 rats were used in these studies. The animals were anesthetized with urethane administered via intraperitoneal injection at a dose of 1.35 g/kg body weight. After the animals had achieved the desired plane of anesthesia, a 21 gauge butterfly with 12″ tubing was placed in the lateral tail vein of each animal and flushed with heparinized saline. The animals were placed onto a heating pad and kept warm throughout the entire study. […]
Incident laser light delivered from the fiber optic was centered on the affixed ear. Data acquisition was then initiated, and a background reading of fluorescence was obtained prior to administration of the test agent. […] The data were analyzed using a standard sigma plot software program for a one compartment model.

[4] = system: DSL 6A tumors; test: In vivo fluorescence imaging of pancreatic ductal adenocarcinoma (DSL 6A); parameters: species or system male Lewis rats
Source text: as §1
DSL 6A tumors were induced in male Lewis rats in the left flank area by the introduction of material from a solid (donor) implant and the tumors were palpable in approximately 14 days. The animals were anesthetized with xylazine; ketamine; acepromazine 1.5:1.5:0.5 at 0.8 mL/kg via intramuscular injection. The area of the tumor (left flank) was shaved to expose tumor and surrounding surface area. […]

[5] = system: Prostrate tumors (Dunning R3327-H); test: In vivo fluorescence imaging of prostatic carcinoma (R3327-H); parameters: species or system young male Copenhagen rats
Source text: as §1
The imaging apparatus and the procedure used are described as in Example 12. Prostrate tumors (Dunning R3327-H) were induced in young male Copenhagen rats in the left flank area from a solid implant. These tumors grow very slowly and palpable masses were present 4-5 months post implant. FIGS. 7C-D are images of a rat with an induced prostatic carcinoma tumor (R3327-H) imaged at two minutes (FIG. 7C) and 30 minutes (FIG. 7D) post injection.

[6] = 500 μl of 1.0 mg/mL solution in 25% dimethylsulfoxide in water, CA20948 tumor

Compound | organ uptake: adrenals [1] | organ uptake: heart [1] | organ uptake: liver [1] | organ uptake: muscle [1] | organ uptake: pancreas [1] | organ uptake: spleen [1] | organ uptake: tumor tissue [1] | time at which uptake into the tumor was maximal [2, 6] | time at which uptake into the tumor was seen [2, 6] | uptake at 45 minutes in rats with the CA20948 tumor cell line ([2]; 45 minutes post injection) | localization of dye in the tumor ([2]; 45 minutes post injection, CA20948 Lewis rat model) | tumor visualization ([2]; 27 hours post injection, CA20948 Lewis rat model) | persistence of dye fluorescence in the tumor ([2]; CA20948 tumor, post-injection) | fluorescence signal in blood (ear) after bolus injection [3] | dye intensity in the tumor ([4]; 30 minutes post-ICG injection, bolus injection of 0.5 ml aqueous solution of ICG, DSL 6A tumor) | perfusion of the agent into the tumor ([4]; DSL 6/A (pancreatic) tumor line, CCD camera) | dye intensity in the tumor ([2]; 30 minutes post-ICG injection, CA20948 tumor) | perfusion of the agent into the tumor ([2]; CA20948 (pancreatic) tumor line, CCD camera) | dye intensity in the tumor ([5]; 30 minutes post-ICG injection, R3327-H tumor) | perfusion of the agent into the tumor ([5]; Dunning R3327H (prostate) tumor line, CCD camera)
C[C@@H](O)[C@H](NC(=O)[C@@H]1CSSC[C@H](NC(=O)[C@@H](Cc2ccccc2)NC(=O)CCN2C(=CC=CC=CC=CC3=[N+](CCC(=O)O)c4ccc5ccccc5c4C3(C)C)C(C)(C)c3c2ccc2ccccc32)C(=O)N[C@@H](Cc2ccc(O)cc2)C(=O)N[C@H](Cc2c[nH]c3ccccc23)C(=O)N[C@@H](CCCCN)C(=O)N[C@@H]([C@@H](C)O)C(=O)N1)C(=O)O [Cytate 1, monoOctreotate-Bisethylcarboxymethylindocyanine dye] | high uptake | significantly lower uptake | significantly lower uptake | significantly lower uptake | high uptake | significantly lower uptake | high uptake | about five | two | still quite intense | localization of this dye was observed in the tumor | Tumor visualization was easily observed | remained intense in the tumor for several hours | rapidly increased to a peak value. The signal then decayed as a function of time | – | – | – | – | – | –
CC1(C)C(/C=C/C=C/C=C/C=C2\N(CCCCS(=O)(=O)O)c3ccc4ccccc4c3C2(C)C)=[N+](CCCCS(=O)(=O)[O-])c2ccc3ccccc3c21 [ICG, indocyanine green] | – | – | – | – | – | – | – | – | – | mostly cleared | – | – | – | – | considerably diminished | slow perfusion of the agent over time into the tumor | considerably diminished and almost absent | only a slight but transient perfusion that was absent after only 30 minutes post injection | considerably diminished | slow perfusion of the agent over time into the tumor
C[C@@H](O)[C@H](NC(=O)[C@@H]1CSSC[C@H](NC(=O)[C@@H](Cc2ccccc2)NC(=O)CCN2C(=CC=CC=CC=CC3=[N+](CCC(=O)N[C@H](Cc4ccccc4)C(=O)N[C@H]4CSSC[C@@H](C(=O)N[C@H](C(=O)O)[C@@H](C)O)NC(=O)[C@H]([C@@H](C)O)NC(=O)[C@H](CCCCN)NC(=O)[C@@H](Cc5c[nH]c6ccccc56)NC(=O)[C@H](Cc5ccc(O)cc5)NC4=O)c4ccc5ccccc5c4C3(C)C)C(C)(C)c3c2ccc2ccccc32)C(=O)N[C@@H](Cc2ccc(O)cc2)C(=O)N[C@H](Cc2c[nH]c3ccccc23)C(=O)N[C@@H](CCCCN)C(=O)N[C@@H]([C@@H](C)O)C(=O)N1)C(=O)O [Cytate 2, bisOctreotate-Bisethylcarboxymethylindocyanine dye] | – | – | – | – | – | – | – | – | – | – | – | – | – | rapidly increased to a peak value. The signal then decayed as a function of time | – | – | – | – | – | –
